Reference: paper PMC8620955
“And” between values parts separate entries of the source, which are not always exact repeats. Equal values may be shown once.

How the values were obtained:
HIS-tagged FcγR3A = HIS-tagged FcγR3A (UniProt P08637); assay: SPR; Biacore T200; His-tagged FcγR2B or FcγR3A captured by an anti-HIS antibody on a CM5 chip; antibody as analyte, single-cycle titration, 25 to 400 nM, 30 min dissociation; HBS-T pH 7.4; KD from fits to the responses at equilibrium
HIS-tagged FcγR2B = HIS-tagged FcγR2B (UniProt P31994); assay: as above
HIS-tagged FcγR1A = HIS-tagged FcγR1A (UniProt P12314); assay: SPR; Biacore T200; His-tagged FcγR1A captured by an anti-HIS antibody on a CM5 chip; antibody as analyte, single-cycle kinetics, 2.5 to 40 nM, 30 min dissociation; HBS-T pH 7.4; bivalent binding model
[1] = biological target: HIS-tagged HER2 (Homo sapiens (assumed; trastuzumab target, species not stated)) (UniProt P04626); assay: SPR; Biacore T200; His-tagged HER2 (4 nM) captured by an anti-HIS antibody on a CM5 chip; antibody as analyte, single-cycle kinetics, 2-fold dilutions 0.5–8 nM, 20 µL/min for 2 min, 60 min dissociation; HBS-T (10 mM HEPES, 150 mM NaCl, 0.05% Tween 20, pH 7.4); bivalent binding model; duplicate

Work on HEK Trastuzumab (antibody) yielded a Kd (HIS-tagged FcγR3A) of 433 nM, a Kd (HIS-tagged FcγR2B) of 686 nM and a Kd (HIS-tagged FcγR1A) of 9.9 nM. The koff (HIS-tagged FcγR1A) was 0.001 s⁻¹ and the kon (HIS-tagged FcγR1A) was 110000 M⁻¹ s⁻¹.
Substance Herceptin (antibody) has a Kd (HIS-tagged FcγR3A) of 267 nM, a Kd (HIS-tagged FcγR2B) of 666 nM and a Kd (HIS-tagged FcγR1A) of 4.7 nM.
With Trastuzumab A121N (antibody) the Kd (HIS-tagged FcγR3A) was 295 nM and 268 nM, the Kd (HIS-tagged FcγR2B) was 3140 nM and 3740 nM and the Kd (HIS-tagged FcγR1A) was 4.8 nM. The koff (HIS-tagged FcγR1A) was 0.00083 s⁻¹ and 0.00098 s⁻¹ and the kon (HIS-tagged FcγR1A) was 170000 M⁻¹ s⁻¹ and 200000 M⁻¹ s⁻¹.
In the case of Trastuzumab L115N (antibody), the Kd (HIS-tagged FcγR3A) is reported as 301 nM and 394 nM, the Kd (HIS-tagged FcγR2B) is reported as 269 nM and 338 nM and the Kd [1] is reported as 1.13 nM and 1.16 nM. The Kd (HIS-tagged FcγR1A) was 6.4 nM and 3.7 nM.
With Trastuzumab L177N (antibody) the Kd (HIS-tagged FcγR3A) was 535 nM and 551 nM, the Kd (HIS-tagged FcγR2B) was 1280 nM and 992 nM and the Kd (HIS-tagged FcγR1A) was 5.6 nM. The koff (HIS-tagged FcγR1A) was 0.0014 s⁻¹ and 0.0015 s⁻¹ and the kon (HIS-tagged FcγR1A) was 250000 M⁻¹ s⁻¹ and 260000 M⁻¹ s⁻¹.
In the case of Trastuzumab L182N (antibody), the Kd (HIS-tagged FcγR1A) is reported as 8.2 nM and 8.1 nM and the koff (HIS-tagged FcγR1A) is reported as 0.0015 s⁻¹.
Trastuzumab Q160N (antibody) was tested, and the Kd (HIS-tagged FcγR3A) was 596 nM and 535 nM, the Kd (HIS-tagged FcγR2B) was 143 nM and the Kd (HIS-tagged FcγR1A) was 6.5 nM and 6.7 nM. For the same substance, the koff (HIS-tagged FcγR1A) was 0.00076 s⁻¹ and the kon (HIS-tagged FcγR1A) was 120000 M⁻¹ s⁻¹ and 110000 M⁻¹ s⁻¹.
Trastuzumab Q178N (antibody) was tested, and the Kd (HIS-tagged FcγR3A) was 239 nM and 217 nM, the Kd (HIS-tagged FcγR2B) was 485 nM and the Kd (HIS-tagged FcγR1A) was 2.6 nM and 2.5 nM. For the same substance, the kon (HIS-tagged FcγR1A) was 370000 M⁻¹ s⁻¹.
In the case of Trastuzumab T198N (antibody), the Kd (HIS-tagged FcγR2B) is reported as 666 nM, the Kd (HIS-tagged FcγR1A) is reported as 3.8 nM and the koff (HIS-tagged FcγR1A) is reported as 0.00088 s⁻¹ and 0.0009 s⁻¹. For the same substance, the kon (HIS-tagged FcγR1A) was 240000 M⁻¹ s⁻¹.
